From patent US20050164929A1, “Methods of preventing and treating inflammatory bowel disease” (LUPINE LOGIC, INC., priority 2000, published 2005)
Several values for one entry are separate records, joined by “and”; a condition that tells them apart may be missing. Equal values may be shown once. Marks after values point to notes of the source that are not given here. Residues, ends and D or L forms follow the SMILES beside them. *: point of attachment. Cbz = O=C(OCc1ccccc1)*

What was measured:
[1] = system: soluble FGF receptors (FGFRs); assay: Receptor binding specificity: control growth factors with soluble FGFRs; assay type: cell-based; details: all soluble FGFRs under analysis
Method: NIH 3T3 cells were serum-starved, incubated with the indicated growth factor (square=PDGF-BB; triangle=aFGF; circle=FGF-CX) either alone or together with the indicated soluble FGFR, and analyzed by a BrdU incorporation assay. Experiments were performed in triplicate and are represented as the percent BrdU increase in incorporation of BrdU relative to cells receiving the growth factor alone.
To determine the receptor binding specificity of FGF-20, we examined the effect of soluble FGF receptors (FGFRs) on the induction of DNA synthesis in NIH 3T3 cells by recombinant FGF-20. Four receptors have been identified to date (Klint P and Claesson-Welsh L. Front. Biosci., 4: 165-177, 1999; Xu X, et al. Cell Tissue Res., 296: 33-43, 1999). Soluble receptors for FGFR1β(IIIc), FGFR2a(IIIb), FGFR2β(IIIb), FGFR2a(IIIc), FGFR3a(IIIc) and FGFR4 were utilized.

[2] = system: NIH 3T3 murine embryonic fibroblast cells; assay: BrdU incorporation bioassay of RP-HPLC peak fractions; assay type: cell-based, mouse; details: for induction of DNA synthesis / activity in proliferation assays: BrdU incorporation; for PI200: concentration giving BrdU incorporation at 2 times the background, serum-starved NIH 3T3, 18 hours
Method: The biological activity of CG53135-05 related species collected from the 4 peaks identified by LC and MS was measured by treatment of serum-starved cultured NIH 3T3 murine embryonic fibroblast cells with various doses of the isolated CG53135-05 related species and measurement of incorporation of bromodeoxyuridine (BrdU) during DNA synthesis. For this assay, cells were cultured in Dulbecco's modified Eagle's medium supplemented with 10% fetal bovine serum. Cells were grown in 96-well plates to confluence at 37° C. in 10% CO2/air and then starved in Dulbecco's modified Eagle's medium for 24-72 hours. CG53135-05-related species were added and incubated for 18 hours at 37° C. in 10% CO2/air. BrdU ([…]) was added and incubated with the cells for 2 hours at 37° C. in 10% CO2/air. Incorporation of BrdU was measured by enzyme-linked immunosorbent assay according to the manufacturer's specifications (Roche Molecular Biochemicals, Indianapolis, Ind.).
Peak 4 was not included in this assay since insufficient material was collected (Peak 4 is less than 3% of the total peak area for CG53135-05).

[3] = system: endothelial cells; assay: Proliferation summary for variants; assay type: cell-based; details: in vitro
Method: (§1) Experiments were performed to evaluate the proliferative response of representative cell types to CG53135, e.g., a full-length tagged variant (CG53135-01), a deletion variant (CG53135-02), and a full-length codon-optimized untagged variant (CG53135-05).
(§2) CG53135-02 (batch 1 and 13) was also used in these experiments. Protein was expressed in E. coli, BLR (DE3) (Novagen), transformed with the deletion variant CG53135-02 inserted into a pET24a vector (Novagen). A research cell bank (RCB) was produced and cell paste containing CG53135-02 was produced by fermentation of cells originating from the RCB. Cell membranes were disrupted by high-pressure homogenization, and lysate was clarified by centrifugation. CG53135-02 was purified by ion exchange chromatography. The final protein fraction was dialyzed against the formulation buffer (100 mM citrate, 1 mM ethylenediaminetetraacetic acid (EDTA), and 1 M L-arginine).
(§3) CG53135-05, DEV10, which were also used in these experiments, was prepared by Cambrex Biosciences (Hopkinton, Mass.) according to Process 1 as described in Section 6.18.1, infra.
(§4) BrdU Incorporation: proliferative activity was measured by treatment of serum-starved cultured cells with a given agent and measurement of BrdU incorporation during DNA synthesis. Cells were cultured in respective manufacturer recommended basal growth medium supplemented with 10% fetal bovine serum or 10% calf serum as per manufacturer recommendations. Cells were grown in 96-well plates to confluence at 37° C. in 10% CO2/air (to subconfluence at 5% CO2 for dedifferentiated chondrocytes and NHOst). Cells were then starved in respective basal growth medium for 24-72 hours. CG53135 protein purified from E. coli or pCEP4/Sec or pCEP4/Sec-FGF 20× enriched conditioned medium was added (10 μL/100 μL of culture) for 18 hours. BrdU (10 μM final concentration) was then added and incubated with the cells for 5 hours. BrdU incorporation was assayed according to the manufacturer's specifications (Roche Molecular Biochemicals, Indianapolis, Ind.).
(§5) The above described experiments were also performed using CG53135-02 and CG53135-05 protein products, and the results are summarized in the Conclusion section below.

[4] = system: mesenchymal and epithelial cells; assay: Proliferation summary for variants; assay type: cell-based; details: in vitro
Method: as §1, §2, §3, §4, §5

[5] = Solubility of protein in formulation buffers; assay type: physicochemical; details: for Solubility of Process 2 protein, Arginine Sulfate vs Arginine Phosphate: Batches #K, #J
Method: Four unexpected properties of CG53135 were discovered and used to develop the new formulation: (1) high concentration of arginine, >0.4 M, increases the solubility to >30 mg/mL; (2) the use of sulfate salt of arginine increases the solubility by at least 2-6 folds; (3) the optimal concentration of sodium phosphate as a buffering salt is 50 mM, with a solubility of at least 1-2 fold increase in comparison with concentrations at 25, 75, and 100 mM; and (4) adding a surfactant during the diafiltration/ultrafiltration step minimizes the formation of aggregates. In development the lyophilized formulation, each component of the new formulation was evaluated for solubility individually. CG53135-05 was precipitated using the precipitate buffer (50 mM NaPi, 5 mM EDTA, 1 M L-Arginine HCl, 2.5 M (NH4)2SO4). The precipitate was washed with 25 mM sodium phosphate buffer at pH 6.5 to remove the residual arginine and ammonium sulfate. The following are examples of data.

[6] = Turbidity (aggregates) after ultrafiltration/diafiltration; assay type: physicochemical
Method: The experiment was conducted by performing the ultrafiltration/diafiltration at 2.5 mg/mL CG53135-05 in 0.2M arginine and 0.05 M sodium phosphate buffer at pH 7.0. After exchanging with 7 volumes of the final buffer (0.5M arginine and 0.05 M sodium phosphate buffer at pH 7.0), the diafiltrate is concentrated to ˜20 mg/mL. The diafiltrate is then diluted with the final buffer to ˜12.5 mg/mL and lyophilized. Polysorbate 80 is added either before or after the diafiltration to a final concentration of 0.01%.
All formulation contains 0.5 M arginine, 0.05 M sodium phosphate monobasic, and 0.01% polysorbate 80.

[7] = system: NIH 3T3 cells; assay: BrdU incorporation, truncated vs full length FGF-20 conditioned medium; assay type: cell-based, mouse; details: 10 ng/mL
Method: NIH 3T3 mouse fibroblasts were serum-starved, incubated with the indicated factor for 18 hours, and analyzed by a BrdU incorporation assay.
A vector expressing amino acids 24-211 of FGF-20, referred to as CG53135-17 (SEQ ID NOs:31 and 32), was prepared. The incorporation of BrdU by NIH 3T3 cells treated with conditioned medium obtained using the vector incorporating this truncated form was compared to the incorporation in response to treatment with conditioned medium using a vector encoding full length FGF-20. This experiment was carried out as described above.

[8] = system: COX-2 induction in Caco-2 cells; assay: COX-2 induction by CG53135 in presence of proteosome inhibitor; assay type: cell-based, human
Method: FIG. 18. Effect of NFkB on activation of CG53135 and stimulation of COX-2 in intestinal epithelial cells. NFkB promoter activity was assayed in HT-29 and Caco2 cell lines in the presence of CG53135-01 E. coli purified product.
ITF promoter activity in HT-29 cells was assayed. […] Thus NF-kB may not have a role inducing COX-2 expression in the presence of CG53135.

Compound: PDGF-BB: control growth factor
- effect of soluble receptor reagents on induction of DNA synthesis by control factor [1]: None of the soluble receptor reagents interfered

Compound: Peak 2: RP-HPLC peak at 27.3 min: CG53135-13 (residues 3-211)
- induction of DNA synthesis / activity in proliferation assays [2]: dose-dependent manner
- PI200 [2]: 11 ng/mL

Compound: CG53135-02: Codon optimized, amino acids 2-54 of SEQ ID NO: 2 removed; SEQ ID NOs 3 and 4
- proliferation of endothelial cells [3]: induces proliferation
- proliferation of mesenchymal and epithelial cells [4]: induce proliferation

Compound: aFGF: acidic FGF, a factor known to interact with all of the FGFRs under analysis
- effect of soluble receptor reagents on induction of DNA synthesis by control factor [1]: inhibit the induction of DNA synthesis

Compound: Peak 3: RP-HPLC peak at 28.5 min: CG53135-05 (residues 1-211)
- induction of DNA synthesis / activity in proliferation assays [2]: dose-dependent manner
- PI200 [2]: 8.6 ng/mL

Compound: Process 2 protein: protein product (CG53135-05) produced by the improved production process, Process 2
- Solubility of Process 2 protein ([5]; Arginine 0.05 M, Batches #1-#3): 0.7 mg/mL and 0.6 mg/mL and 0.5 mg/mL
- Solubility of Process 2 protein ([5]; Arginine 0.15 M, Batches #1-#3): 2.2 mg/mL and 1.6 mg/mL
- Solubility of Process 2 protein ([5]; Arginine 0.20 M, Batches #1-#3): 3.0 mg/mL and 4.7 mg/mL and 4.3 mg/mL
- Solubility of Process 2 protein ([5]; Arginine 0.30 M, Batch #4): 5.8 mg/mL
- Solubility of Process 2 protein ([5]; Arginine 0.35 M, Batch #4): 10.1 mg/mL
- Solubility of Process 2 protein ([5]; Arginine 0.40 M, Batch #4): 9.8 mg/mL
- Solubility of Process 2 protein ([5]; Arginine 0.45 M, Batch #4): 32.3 mg/mL
- Solubility of Process 2 protein ([5]; Arginine 0.50 M, Batch #4 (not sufficient protein to be dissolved) and #5): 23.8* mg/mL and 37 mg/mL
- Solubility of Process 2 protein, Arginine Sulfate vs Arginine Phosphate ([5]; first formulation line: 50 mM sodium phosphate monobasic and 0.15 M Arginine at pH 7): 4400 µg/mL and 2300 µg/mL
- Solubility of Process 2 protein, Arginine Sulfate vs Arginine Phosphate ([5]; second formulation line: 50 mM sodium phosphate monobasic and 0.15 M Arginine at pH 7): 6500 µg/mL and 5200 µg/mL
- Solubility of Process 2 protein ([5]; sodium phosphate monobasic 25 mM, 0.2 M arginine, Batches #A-#E): 4.01 mg/mL and 2.4 mg/mL and 2.6 mg/mL and 3.59 mg/mL
- Solubility of Process 2 protein ([5]; sodium phosphate monobasic 50 mM, 0.2 M arginine, Batches #A-#E): 5.47 mg/mL and 4.7 mg/mL and 3.3 mg/mL and 4.3 mg/mL and 4.81 mg/mL
- Solubility of Process 2 protein ([5]; sodium phosphate monobasic 75 mM, 0.2 M arginine, Batches #A-#E): 4.06 mg/mL and 2.5 mg/mL and 2.6 mg/mL and 3.0 mg/mL and 2.38 mg/mL
- Solubility of Process 2 protein ([5]; sodium phosphate monobasic 100 mM, 0.2 M arginine, Batches #A-#E): 3.78 mg/mL and 2.8 mg/mL and 2.4 mg/mL and 2.9 mg/mL and 2.47 mg/mL
- Turbidity ([6]; Polysorbate added during ultrafiltration/diafiltration: No, 13.0 mg/mL): 4.6 NTU
- Turbidity ([6]; Polysorbate added during ultrafiltration/diafiltration: Yes, 12.5 mg/mL): 20.9 NTU

Compound: CG53135-17: CG53135-05 minus first 23 amino acids at the N-terminus (amino acids 24-211 of FGF-20)
- activity (BrdU incorporation) at lowest concentration tested [7]: retains high activity

Compound: CC(C)C[C@@H](C=O)NC(=O)[C@H](CC(C)C)NC(=O)[C@H](CC(C)C)NC(=O)OCc1ccccc1 [MG132] (Cbz-Leu-Leu-Leu-aldehyde)
- block of COX-2 induction by CG53135 [8]: does not block COX-2 induction

Compound: CG53135-05 (DEV 10): Process 1 reference standard of CG53135-05 E. coli purified product
- PI200 [2]: 1.0 ng/mL
